Source: patent US20240368283A1 (published 2024)

B1: TA359 (antibody, human IgG1, lambda)
heavy: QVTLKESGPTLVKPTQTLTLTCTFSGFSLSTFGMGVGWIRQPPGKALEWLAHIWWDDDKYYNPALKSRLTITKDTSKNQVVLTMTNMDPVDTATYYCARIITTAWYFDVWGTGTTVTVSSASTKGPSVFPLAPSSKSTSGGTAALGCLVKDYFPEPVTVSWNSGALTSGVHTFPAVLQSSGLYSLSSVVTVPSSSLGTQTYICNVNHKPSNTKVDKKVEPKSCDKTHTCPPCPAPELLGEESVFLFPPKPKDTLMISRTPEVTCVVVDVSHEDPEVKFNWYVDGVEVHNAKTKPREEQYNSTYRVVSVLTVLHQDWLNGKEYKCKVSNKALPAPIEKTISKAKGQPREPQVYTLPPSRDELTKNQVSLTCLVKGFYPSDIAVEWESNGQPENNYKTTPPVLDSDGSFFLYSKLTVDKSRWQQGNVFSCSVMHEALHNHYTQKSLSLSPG
light: QAVVTQEPSLTVSPGGTVTLTCRSSTGAVTTSNYANWVQQKPGQAFRGLIGGTNNRAPGVPDRFSGSILGNKAALTITGAQADDESDYYCALWYSNHFIFGSGTKVTVLGQPKAAPSVTLFPPSSEELQANKATLVCLISDFYPGAVTVAWKADSSPVKAGVETTTPSKQSNNKYAASSYLSLTPEQWKSHRSYSCQVTHEGSTVEKTVAPTECS
B2: TA322 (antibody, human IgG1, kappa)
heavy: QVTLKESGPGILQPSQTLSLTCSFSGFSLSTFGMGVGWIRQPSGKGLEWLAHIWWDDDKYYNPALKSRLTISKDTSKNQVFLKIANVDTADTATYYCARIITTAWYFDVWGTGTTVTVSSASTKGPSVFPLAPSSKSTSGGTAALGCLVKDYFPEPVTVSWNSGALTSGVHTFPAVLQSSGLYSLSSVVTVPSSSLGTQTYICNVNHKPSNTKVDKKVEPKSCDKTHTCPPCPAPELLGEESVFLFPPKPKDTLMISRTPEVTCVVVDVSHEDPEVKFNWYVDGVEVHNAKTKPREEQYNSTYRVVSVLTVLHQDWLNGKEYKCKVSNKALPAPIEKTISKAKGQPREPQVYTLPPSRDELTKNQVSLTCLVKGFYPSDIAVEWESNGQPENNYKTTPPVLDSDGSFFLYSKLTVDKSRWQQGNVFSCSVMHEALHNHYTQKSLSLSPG
light: QAVVTQESALTTSPGETVTLTCRSSTGAVTTSNYANWVQEKPDHLFTGLIGGTNNRAPGVPARFSGSLIGDKAALTITGAQTEDEAIYFCALWYSNHFIFGSGTKVTVLRTVAAPSVFIFPPSDEQLKSGTASVVCLLNNFYPREAKVQWKVDNALQSGNSQESVTEQDSKDSTYSLSSTLTLSKADYEKHKVYACEVTHQGLSSPVTKSFNRGEC
B3: ARB49 (antibody, human IgG1, kappa)
heavy: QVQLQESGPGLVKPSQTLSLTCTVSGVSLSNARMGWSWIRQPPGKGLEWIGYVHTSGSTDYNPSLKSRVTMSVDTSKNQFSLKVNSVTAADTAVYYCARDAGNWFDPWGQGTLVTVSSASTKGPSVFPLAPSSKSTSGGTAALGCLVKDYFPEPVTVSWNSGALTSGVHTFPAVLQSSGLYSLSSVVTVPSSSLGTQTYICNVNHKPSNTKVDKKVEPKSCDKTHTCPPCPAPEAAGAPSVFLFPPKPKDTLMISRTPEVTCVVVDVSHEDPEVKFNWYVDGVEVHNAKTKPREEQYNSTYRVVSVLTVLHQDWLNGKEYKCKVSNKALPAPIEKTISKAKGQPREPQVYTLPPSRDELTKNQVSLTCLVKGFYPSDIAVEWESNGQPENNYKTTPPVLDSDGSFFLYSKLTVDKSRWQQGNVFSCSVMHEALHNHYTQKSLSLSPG
light: EIVMTQSPATLSLSPGERATLSCRASQSLSSSHLAWYQQKPGQAPRLLIYDASIRVPGIPARFSGSGSGTDFTLTISSLEPEDFAVYYCQQYAVPPITFGGGTKVEIKRTVAAPSVFIFPPSDEQLKSGTASVVCLLNNFYPREAKVQWKVDNALQSGNSQESVTEQDSKDSTYSLSSTLTLSKADYEKHKVYACEVTHQGLSSPVTKSFNRGEC
notes: copies: 2 + 2

Key:
[1] = target: PD-1 (in the reporter cells of the PD-1 agonism assay) (Homo sapiens (Human), UniProt Q15116 25-288); assay: cell-based or functional assay
[2] = target: T1, human FcγRIIβ (human, UniProt P31994 46-217, limits assumed); assay: Fc receptor affinity, Table 29 (method for Fc receptors not told in Example 43)
T1 construct: also called FcγRIIb; R2b
T1 sequence (looked up): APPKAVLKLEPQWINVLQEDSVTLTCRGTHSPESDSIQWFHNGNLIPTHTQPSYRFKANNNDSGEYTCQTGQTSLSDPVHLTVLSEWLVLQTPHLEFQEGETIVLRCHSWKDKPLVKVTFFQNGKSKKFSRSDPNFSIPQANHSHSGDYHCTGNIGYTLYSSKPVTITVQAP

[3] = target: FcγRI; assay: as above
[4] = target: T2, Recombinant human PD-1 (human, UniProt Q15116 25-170, limits assumed); assay: BLI (Octet RED96), antibody captured on anti-human IgG Fc biosensors, PD-1 titrated; steady state (footnote *)
T2 construct: Soluble recombinant analyte in BLI; also called huPD1

[5] = target: T3, Cyno PD-1 (cyno); assay: as above
T3 construct: also called cynomolgus PD-1; cyPD1

[6] = target: T1, human FcγRIIβ; assay: ratio of KD on FcγRIIα R131 to KD on FcγRIIβ, Table 29
[7] = target: T1, human FcγRIIβ; assay: SPR, antibody captured on ProA/G HC30M chip, recombinant human FcγRIIβ injected (4 nM-5 uM); average kinetic KD
Experimental: (§1) Example 52: The binding of anti-FcγRIIβ antibodies to human FcγRIIβ was evaluated. Antibodies were captured on ProA/G HC30M chip at 5 ug/mL, 1 ug/mL, and 0.2 ug/mL for 15 minutes. Six buffer injections were made over the chip followed by injections of increasing concentrations of recombinant human FcγRIIβ (4 nm-5 uM). The association was measured during each injection for 5 minutes and the dissociation was measured for 10 minutes post injection with buffer flow (1×HBSTE+ BSA).

[8] = target: T1, human FcγRIIβ; assay: SPR, antibody captured on ProA/G HC30M chip, recombinant human FcγRIIβ injected (4 nM-5 uM); average steady state KD
Experimental: as §1

Chain of PD-1 (in the reporter cells of the PD-1 agonism assay) (Q15116 25-288 limits assumed): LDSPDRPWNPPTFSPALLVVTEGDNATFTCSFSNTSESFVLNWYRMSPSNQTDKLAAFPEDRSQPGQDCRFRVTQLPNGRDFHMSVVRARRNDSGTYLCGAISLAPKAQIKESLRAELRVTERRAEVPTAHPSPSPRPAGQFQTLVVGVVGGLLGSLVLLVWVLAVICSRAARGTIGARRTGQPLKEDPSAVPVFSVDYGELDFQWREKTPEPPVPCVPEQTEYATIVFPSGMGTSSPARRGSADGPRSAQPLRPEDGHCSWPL
Chain of FcγRI (P12314 16-292): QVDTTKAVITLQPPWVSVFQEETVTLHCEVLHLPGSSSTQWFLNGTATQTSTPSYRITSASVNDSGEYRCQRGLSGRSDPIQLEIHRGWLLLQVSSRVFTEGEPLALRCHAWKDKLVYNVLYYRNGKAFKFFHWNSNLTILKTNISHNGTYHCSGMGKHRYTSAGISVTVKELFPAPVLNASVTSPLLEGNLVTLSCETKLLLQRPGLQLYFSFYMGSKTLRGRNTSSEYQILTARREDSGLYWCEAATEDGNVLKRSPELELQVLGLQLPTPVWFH
T2 sequence (Q15116 25-170 limits assumed): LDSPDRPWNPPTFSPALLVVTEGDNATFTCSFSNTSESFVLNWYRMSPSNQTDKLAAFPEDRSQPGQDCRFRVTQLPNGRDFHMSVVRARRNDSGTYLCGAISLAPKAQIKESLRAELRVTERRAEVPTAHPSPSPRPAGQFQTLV

Row | Binder | Emax [1] | log EC50 [1] | Kd [2] [nM] | Affinity to RI relative to WT [3] [fold lower than WT] | Kd [4] [nM] | Kd [5] [nM] | R131/2b (fold) [6] [fold] | Kd [7] [nM] | Kd [8] [nM]
1 | B1 | 2.2 | -8.3 | 3100 | > 10 | 1000 | 600 | – | – | –
2 | B2 | 2.1 | -8.3 | 3500 | > 10 | – | – | 9.7 | – | –
3 | B3 | – | – | – | – | – | – | – | 37.3 | 40
